Source: patent US20240376151A1, “STAPLED PEPTIDES AND METHODS THEREOF” (FOG PHARMACEUTICALS, INC., priority 2022, published 2024)
Numbered stars: 1 amine (or outer) side, 2 acyl side, 3 side chain; on linkers, the order of the positions; unused ones are H or OH. Bridge positions count the residues as written; N and C are the ends. Ends that are not written are not given here. Phenylene(1,4-NHCOCH2)2 = O=C(C[*:1])Nc1ccc(NC(=O)C[*:2])cc1

Experiments:
[1] = target: CDK2 (Homo sapiens, UniProt P24941); assay: Phage Library Screening with NGS, CDK2; format: binding; parameters: Full length CDK2 (residues 1-298) with an N-terminal GST-3C-6×his-TEV tag; GST-3C-6×his-TEV (N, cleaved yes); made in house; host or cells: Sf9 (Bac-to-Bac baculovirus); conditions: for phage screen counts, Target Concentration 10: CDK2, target concentration 10; for phage screen counts, Target Concentration 30: CDK2, target concentration 30; for phage screen counts, Target Concentration 100: CDK2, target concentration 100; for phage screen counts, Target Concentration 300: CDK2, target concentration 300
[2] = target: T1, PPIA (Homo sapiens, UniProt P62937); assay: Phage Library Screening with NGS, PPIA; format: binding
T1 construct: Full length PPIA (residues 1-165) with an N-terminal 6×his-yBBR-TEV tag; 6×his-yBBR-TEV (N); made in house; host or cells: E. coli BL21 (DE3) CodonPlus RIPL

[3] = CDK2, target concentration 1000, first column
[4] = CDK2, target concentration 1000, second column
[5] = target concentration 1000, first column
[6] = target concentration 1000, second column

T1 sequence (P62937 whole entry, the tested form may be a part): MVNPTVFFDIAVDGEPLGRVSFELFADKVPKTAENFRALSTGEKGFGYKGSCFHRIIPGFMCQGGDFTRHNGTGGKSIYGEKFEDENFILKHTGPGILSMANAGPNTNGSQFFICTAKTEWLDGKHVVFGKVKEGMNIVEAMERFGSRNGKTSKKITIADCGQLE

Sequence | phage screen counts, Target Concentration 10 [1] | phage screen counts, Target Concentration 30 [1] | phage screen counts, Target Concentration 100 [1] | phage screen counts, Target Concentration 300 [1] | phage screen counts, Target Concentration 1000 [1, 3] | phage screen counts, Target Concentration 1000 [1, 4] | phage screen counts, Target Concentration 10 [2] | phage screen counts, Target Concentration 30 [2] | phage screen counts, Target Concentration 100 [2] | phage screen counts, Target Concentration 300 [2] | phage screen counts, Target Concentration 1000 [2, 5] | phage screen counts, Target Concentration 1000 [2, 6]
DPAWWSCVIAAMECQDI (linker 7-14 via Phenylene(1,4-NHCOCH2)2 (inferred)) | 0 | 0 | 0 | 39 | 87 | 90 |  |  |  |  |  | 
DPAWWRCVVAALDCVDY (linker 7-14 via Phenylene(1,4-NHCOCH2)2 (inferred)) | 0 | 12 | 8 | 262 | 162 | 409 |  |  |  |  |  | 
DPAWWVCAIAAIECSDV (linker 7-14 via Phenylene(1,4-NHCOCH2)2 (inferred); not fully specified (N-terminus, C-terminus)) | 38 | 634 | 2330 | 12368 | 7673 | 8315 |  |  |  |  |  | 
DPAWWHCVIAALDCETQ (linker 7-14 via Phenylene(1,4-NHCOCH2)2 (inferred)) | 0 | 15 | 5 | 93 | 119 | 141 |  |  |  |  |  | 
YECLEAFFNC (linker 3-10 via Phenylene(1,4-NHCOCH2)2 (inferred)) | 0 | 0 | 0 | 2 | 208 | 193 |  |  |  |  |  | 
FECLDAFFSC (linker 3-10 via Phenylene(1,4-NHCOCH2)2 (inferred); not fully specified (N-terminus, C-terminus)) | 0 | 0 | 0 | 49 | 982 | 405 |  |  |  |  |  | 
PYDCHIAAWMC |  |  |  |  |  |  | 0 | 0 | 0 | 0 | 20 | 35
PNCHVEAYFCM |  |  |  |  |  |  | 0 | 1 | 8 | 68 | 98 | 63
DPARADCHVAAYWCYQQ |  |  |  |  |  |  | 0 | 1 | 6 | 8 | 10 | 10
DPALFDCHIAAYQCIFY |  |  |  |  |  |  | 0 | 0 | 25 | 29 | 20 | 55
PDCHIRAYVCH (Ac-PDCHIRAYVCH-NH2; bridge 3-10; also: Cys-Cys staple, linker not named) |  |  |  |  |  |  | 0 | 0 | 1 | 8 | 11 | 120
PDCHIAAWYCR |  |  |  |  |  |  | 0 | 0 | 0 | 0 | 11 | 10

Other lines, results leading:

phage screen counts, Target Concentration 10 [1] | phage screen counts, Target Concentration 30 [1] | phage screen counts, Target Concentration 100 [1] | phage screen counts, Target Concentration 300 [1] | phage screen counts, Target Concentration 1000 [1, 3] | phage screen counts, Target Concentration 1000 [1, 4] | phage screen counts, Target Concentration 10 [2] | phage screen counts, Target Concentration 30 [2] | phage screen counts, Target Concentration 100 [2] | phage screen counts, Target Concentration 300 [2] | phage screen counts, Target Concentration 1000 [2, 5] | phage screen counts, Target Concentration 1000 [2, 6] | Sequence
0 | 0 | 79 | 131 | 54 | 115 |  |  |  |  |  |  | DPAWYECIVAAIECVEY (linker 7-14 via Phenylene(1,4-NHCOCH2)2 (inferred))
0 | 0 | 10 | 85 | 65 | 77 |  |  |  |  |  |  | DPAWWVCSIAAIECESS
0 | 12 | 0 | 286 | 411 | 473 |  |  |  |  |  |  | DPAWYECVVAAIECHAY (linker 7-14 via Phenylene(1,4-NHCOCH2)2 (inferred))
0 | 0 | 0 | 0 | 19 | 189 |  |  |  |  |  |  | WSCLSAYFSC (linker 3-10 via Phenylene(1,4-NHCOCH2)2 (inferred))
0 | 0 | 0 | 7 | 18 | 51 |  |  |  |  |  |  | PCLDAFFYCVT (linker 2-9 via Phenylene(1,4-NHCOCH2)2 (inferred))
0 | 0 | 0 | 1 | 109 | 35 |  |  |  |  |  |  | PTCLNAFFACE (linker 3-10 via Phenylene(1,4-NHCOCH2)2 (inferred))
0 | 0 | 0 | 139 | 216 | 422 |  |  |  |  |  |  | DPAWWVCAIAAMDCHEQ (linker 7-14 via Phenylene(1,4-NHCOCH2)2 (inferred))
0 | 0 | 0 | 0 | 151 | 19 |  |  |  |  |  |  | PACVSAFFACL (linker 3-10 via Phenylene(1,4-NHCOCH2)2 (inferred))
0 | 0 | 0 | 16 | 114 | 176 |  |  |  |  |  |  | PMACLSAFFTC (linker 4-11 via Phenylene(1,4-NHCOCH2)2 (inferred))
3 | 47 | 258 | 1258 | 822 | 819 |  |  |  |  |  |  | DPAWWVCAVAAIECQEY (linker 7-14 via Phenylene(1,4-NHCOCH2)2 (inferred))
0 | 0 | 0 | 93 | 238 | 217 |  |  |  |  |  |  | DPAWWRCSIAAVDCEMQ (linker 7-14 via Phenylene(1,4-NHCOCH2)2 (inferred))
0 | 0 | 0 | 62 | 76 | 90 |  |  |  |  |  |  | DPAWWECIVAALECSDR (linker 7-14 via Phenylene(1,4-NHCOCH2)2 (inferred))
 |  |  |  |  |  | 0 | 0 | 3 | 5 | 31 | 8 | PTCHIHAYHCY
 |  |  |  |  |  | 0 | 0 | 0 | 8 | 16 | 26 | PDCHVAAWMCF
 |  |  |  |  |  | 0 | 1 | 156 | 199 | 142 | 190 | DPAAFSCHVAAWQCHTL
 |  |  |  |  |  | 6 | 10 | 176 | 197 | 190 | 227 | DPASYDCHVAAYFCNFA
